Test results as given in patent US20220227870A1 (Innovent, published 2022).

Assays:
[1] = target: T1, tumor cells H292 (ATCC), co-incubated with human red blood cells; assay: flow cytometry; CFSE-labelled H292 cells co-incubated 1:20 with human red blood cells; antibody 0.123 nM
T1 construct: also called H292 cells
Experimental: (§1) Tumor cells H292 (ATCC) were fluorescently labeled with fluorochrome CFSE according to the instructions of CellTrace™ CFSE Cell Proliferation Kit (Invitrogen, catalog number: C34554). The labeled tumor cells were co-cultured with the aforementioned isolated human red blood cells at a ratio of 1:20 in terms of cell number, and meanwhile, tested antibody solutions of different concentrations were added. The cells were incubated at 4° C. for 30 min. […] The cells were washed at least twice with PBS and analyzed by flow cytometry.

[2] = target: T1, tumor cells H292 (ATCC), co-incubated …; assay: flow cytometry; CFSE-labelled H292 cells co-incubated 1:20 with human red blood cells; antibody 0.370 nM
Experimental: (§2) The mixture was then gently added to 4 tubes each with 12.5 ml of FiColl (Thermo). The samples were centrifuged at 400 g for 30 min with zero deceleration. The upper serum and PBMC were removed to obtain red blood cells in the lowest layer.
as §1

[3] = target: T1, tumor cells H292 (ATCC), co-incubated …; assay: flow cytometry; CFSE-labelled H292 cells co-incubated 1:20 with human red blood cells; antibody 10.000 nM
Experimental: as §2, §1

[4] = target: T2, h CD47 (Acrobiosystems) (human, UniProt Q08722 19-139); assay: ForteBio Octet BLI; antibody loaded on AHC sensor, h CD47 100 nM in solution
T2 construct: Bought soluble antigen; also called CD47 protein in solution
Experimental: (§3) The anti-human IgG Fc biosensor AHC was immersed in each well containing the antibody solution, and immersed at room temperature for 600 seconds to load the samples. The sensor was then washed in SD buffer until it returned to the baseline, and then immersed in a well containing 100 μL of the antigen solution to monitor the association of the antibody with the antigen. The sensor was then transferred to a well containing 100 ul of SD buffer to monitor the antibody dissociation. The rotation speed was 400 rpm and the temperature was 30° C. The background-corrected association and dissociation curves were plotted by the Octet analysis software (ForteBio) to generate the association (k_{∞}) rate constant and dissociation (kdis) rate constant, which are then used to calculate the equilibrium dissociation constant (KD).

[5] = target: T1, tumor cells H292 (ATCC), co-incubated …; assay: flow cytometry; CFSE-labelled H292 cells co-incubated 1:20 with human red blood cells; antibody 0.041 nM
Experimental: as §1

[6] = target: T3, rh PD-L1 (Acrobiosystems) (human, UniProt Q9NZQ7 19-238); assay: ForteBio Octet BLI; antibody loaded on AHC sensor, antigen 100 nM in solution; note: N.B: Not detectable
T3 construct: Bought soluble antigen; also called PD-L1 protein in solution
Experimental: as §3

[7] = target: T1, tumor cells H292 (ATCC), co-incubated …; assay: flow cytometry; CFSE-labelled H292 cells co-incubated 1:20 with human red blood cells; antibody 3.333 nM
Experimental: as §2, §1

[8] = target: T4, human CD47 expressed on the surface of cells (CHO-S-CD47 cells) (human, UniProt Q08722 19-323); assay: FACS on CHO-S cells overexpressing human CD47, PE-conjugated anti-human Fc detection, MFI
T4 construct: whole, on cells; also called CHO-S cells overexpressing CD47; CHO-CD47
Experimental: The cell suspension was centrifuged at 400 g on a centrifuge for 5 minutes to remove the cell medium. […] The cell suspension was centrifuged at 400 g for 5 minutes, and then the supernatant was removed, and the cells were washed with PBS to remove the unbound antibodies. The obtained cell suspension was centrifuged at 400 g for 5 minutes to remove PBS. 100 μL of the solution of PE-conjugated anti-human Fc antibody (Jackson Immuno Research) diluted at a ratio of 1:200 was added to each well, and the cells were incubated in the dark on the ice for 30 minutes. Then the cell suspension was centrifuged at 400 g for 5 minutes and the supernatant was removed. The cells were washed with PBS to remove the unbound PE-conjugated anti-human Fc antibody. The cells were resuspended with 100 μL of PBS, and the binding of the antibodies to cells was assayed by FACS.

[9] = target: T1, tumor cells H292 (ATCC), co-incubated …; assay: flow cytometry; CFSE-labelled H292 cells co-incubated 1:20 with human red blood cells; antibody 0.014 nM
Experimental: as §2, §1

[10] = target: T1, tumor cells H292 (ATCC), co-incubated …; assay: flow cytometry; CFSE-labelled H292 cells co-incubated 1:20 with human red blood cells; antibody 1.111 nM
Experimental: as §1

proportion of antibody binding to H292 cells [1]: 5.74%
proportion of antibody binding to H292 cells [2]: 14.4%
proportion of antibody binding to H292 cells [3]: 3.9%
Kd [4]: 2.32 nM
koff [4]: 0.0018 s⁻¹
kon [4]: 774000 M⁻¹ s⁻¹
proportion of antibody binding to H292 cells [5]: 17.7%
binding result [6]: no binding (tested: 100 nM)
proportion of antibody binding to H292 cells [7]: 8.42%
EC50 (read off the curve) [8]: ~1 nM
proportion of antibody binding to H292 cells [9]: 3.59%
proportion of antibody binding to H292 cells [10]: 6.15%
B1: anti-CD47 antibody ADI-29341 (antibody, V domains shown)
VH: QVQLQESGPGLVKPSETLSLTCTVSGGSIEHYYWSWIRQPPGKGLEWIGYIYYSGSTNYNPSLKSRVTISVDTSKNQFSLKLSSVTAADTAVYYCARGKTGSAAWGQGTLVTVSS
VL: DIQMTQSPSSVSASVGDRVTITCRASQGISRWLAWYQQKPGKAPKLLIYAASSLQSGVPSRFSGSGSGTDFTLTISSLQPEDFATYYCQQTVSFPITFGGGTKVEIK
notes: captured on an anti-human IgG Fc sensor; also called parent antibody (anti-CD47)
